Test results as given in patent US20260000597A1 (priority 2018, published 2026).

Target: AchR (Homo sapiens, UniProt P02708)
Assay: ELISA of screened peptide phages on AchR versus streptavidin (OD450)
Format: binding
Conditions: ELISA of selected 11-mer (L2) peptide phages on AchR, absorbance at 450 nm; Spep-2 positive control
Experimental: The output phages for the 4th and 5th rounds of biopanning in Example 13-1 were inoculated to E. coli, and plated on the agar plates so as to form 100-200 plaques per plate. The plaques were inoculated on 1 ml of an SB liquid medium containing 50 μg/ml of ampicillin by using a sterile tip, and cultured with shaking at 37° C. for 5 hours, followed by the addition of 30 μl of helper phages, and then cultured at 37° C. and 200 rpm for one day. The culture was centrifuged at 12,000 rpm for 2 minutes to collect supernatant, and 2% BSA was added to the supernatant, and used for phage screening.
In a 96-well ELISA plate, 5 μg/ml AchR or streptavidin was added at 50 μl per well, and left at 4° C. overnight. The next day, the solution in each well was discarded, followed by the addition of 2% BSA, and then blocked at room temperature for 2 hours. After the solution was all discarded, the wells were washed three times with Tris (20 mM, pH7). In addition, 100 μl of each of the phage solutions obtained from the above-prepared plaques was dispensed into wells and left at 30° C. for 1 hour. After the solution in the wells was all discarded, the wells were washed three times with Tris (20 mM, pH 7), and then the HRP-conjugated anti-M13 antibody diluted 1:2,000 was added at 100 μl per well, followed by culture at 30° C. for 1 hour. After the wells were washed three times with Tris (20 mM, pH7), 100 μl of tetramethylbenzidine was added to each well to induce a color development reaction, and then the reaction was stopped by the addition of 100 μl of 1M H2SO4, and the absorbance at 450 nm (OD450) was measured. The measured absorbance was converted into a ratio of AchR absorbance to streptavidin absorbance (AchR signal/streptavidin signal), and the results are shown in FIGS. 14 to 16.

AchR, sequence (P02708 21-457): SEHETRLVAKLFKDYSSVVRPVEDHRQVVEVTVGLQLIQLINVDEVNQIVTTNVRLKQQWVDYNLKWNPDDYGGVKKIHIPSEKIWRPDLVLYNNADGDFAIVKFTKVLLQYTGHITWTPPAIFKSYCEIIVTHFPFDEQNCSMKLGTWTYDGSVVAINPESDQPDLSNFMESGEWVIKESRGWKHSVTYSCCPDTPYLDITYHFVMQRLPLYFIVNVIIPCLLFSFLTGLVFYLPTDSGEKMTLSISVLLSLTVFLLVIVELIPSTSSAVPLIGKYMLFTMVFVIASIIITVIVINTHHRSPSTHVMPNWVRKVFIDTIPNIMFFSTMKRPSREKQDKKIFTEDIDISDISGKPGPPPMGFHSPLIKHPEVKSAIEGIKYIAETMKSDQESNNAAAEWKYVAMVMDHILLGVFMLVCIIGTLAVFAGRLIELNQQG

Substance “L2-12 (AYAKARRWGQK; AchR binding peptide) [Peptide L2-12]” has an OD of 0.83.

“L2-13 (GGLKSKRLTTR; AchR binding peptide) [Peptide L2-13]” was tested, and the OD was 0.855.

“L2-14 (GMWKVRKTVFR; AchR binding peptide) [Peptide L2-14]” gave an OD of 0.746.

Substance “L2-15 (HTTRGKRCDPR; AchR binding peptide) [Peptide L2-15]” has an OD of 0.705.

With “L2-16 (VDVRNKKSNNR; AchR binding peptide) [Peptide L2-16]” the OD was 0.77.

In the case of “L2-17 (GLNRWRRCHHK; AchR binding peptide) [Peptide L2-17]”, the OD is reported as 0.72.

Work on “L2-18 (LQSRSKKYSVK; AchR binding peptide) [Peptide L2-18]” yielded an OD of 0.753.

Work on “L2-19 (GWNRAKREESK; AchR binding peptide) [Peptide L2-19]” yielded an OD of 0.727.

With “L2-20 (SWQKCKKAEVR; AchR binding peptide) [Peptide L2-20]” the OD was 0.675.

Substance “L2-21 (MVMKWKRWNQR; AchR binding peptide) [Peptide L2-21]” has an OD of 0.719.

With “L2-22 (MMMRHKRCQYR; AchR binding peptide) [Peptide L2-22]” the OD was 0.75.

In the case of “L2-23 (QTYRLKKPLQK; AchR binding peptide) [Peptide L2-23]”, the OD is reported as 0.832.

Work on “L2-24 (SFWRERKNGFR; AchR binding peptide) [Peptide L2-24]” yielded an OD of 0.812.

Work on “L2-25 (RLERPRRELTK; AchR binding peptide) [Peptide L2-25]” yielded an OD of 0.842.

Work on “L2-26 (APWRLKRAPQR; AchR binding peptide) [Peptide L2-26]” yielded an OD of 0.809.

“L2-27 (QGEKYRRTESK; AchR binding peptide) [Peptide L2-27]” was tested, and the OD was 0.747.

For “L2-28 (CIWKSKRSPAK; AchR binding peptide) [Peptide L2-28]”, the OD was 0.762.

“L2-29 (AILKGKRIPNK; AchR binding peptide) [Peptide L2-29]” showed an OD of 0.756.

With “L2-30 (PTLKWRKPVLR; AchR binding peptide) [Peptide L2-30]” the OD was 0.746.

“L2-31 (NNSRSKRFMNR; AchR binding peptide) [Peptide L2-31]” was tested, and the OD was 0.737.

“L2-32 (LYMRCKKQAPR; AchR binding peptide) [Peptide L2-32]” gave an OD of 0.64.

“L2-33 (INYRCRKWVDK; AchR binding peptide) [Peptide L2-33]” showed an OD of 0.619.

“L2-34 (VMDRDRKWWWR; AchR binding peptide) [Peptide L2-34]” showed an OD of 0.604.

Work on “L2-35 (NFTKLRKPGPR; AchR binding peptide) [Peptide L2-35]” yielded an OD of 0.683.

“L2-36 (FIPKMRKCSPR; AchR binding peptide) [Peptide L2-36]” showed an OD of 0.76.

Work on “L2-37 (TLWKVRKAYSR; AchR binding peptide) [Peptide L2-37]” yielded an OD of 0.66.

For “L2-38 (ESEKIKRLSTR; AchR binding peptide) [Peptide L2-38]”, the OD was 0.88.

In the case of “L2-39 (LMTKNRRNSFR; AchR binding peptide) [Peptide L2-39]”, the OD is reported as 0.669.

Work on “L2-40 (PEVKVRRHSMR; AchR binding peptide) [Peptide L2-40]” yielded an OD of 0.685.

Work on “L2-41 (AEVKDKKAYYK; AchR binding peptide) [Peptide L2-41]” yielded an OD of 0.568.

“L2-42 (YYAKSKKYMVR; AchR binding peptide) [Peptide L2-42]” was tested, and the OD was 0.508.

Work on “L2-43 (LMDRTRRDMYK; AchR binding peptide) [Peptide L2-43]” yielded an OD of 0.572.

“L2-44 (NMGRHKRPFLK; AchR binding peptide) [Peptide L2-44]” gave an OD of 0.579.

“L2-45 (WIYRGRKDVAK; AchR binding peptide) [Peptide L2-45]” was tested, and the OD was 0.584.

In the case of “L2-46 (CYWKAKRYPMR; AchR binding peptide) [Peptide L2-46]”, the OD is reported as 0.704.

“L2-47 (IEDKGRRINPR; AchR binding peptide) [Peptide L2-47]” gave an OD of 0.707.

“L2-48 (VSTKIKKEPQR; AchR binding peptide) [Peptide L2-48]” gave an OD of 0.629.

Work on “L2-49 (YPFKAKRPAEK; AchR binding peptide) [Peptide L2-49]” yielded an OD of 0.734.

In the case of “L2-50 (SADRNKRHMTR; AchR binding peptide) [Peptide L2-50]”, the OD is reported as 0.656.

For “L2-51 (SLYRQKRHDYK; AchR binding peptide) [Peptide L2-51]”, the OD was 0.653.

In the case of “L2-52 (LPSRPKKPVPK; AchR binding peptide) [Peptide L2-52]”, the OD is reported as 0.624.

Work on “L2-53 (PAWRCKRCQPK; AchR binding peptide) [Peptide L2-53]” yielded an OD of 0.614.

“L2-54 (HHWRFKREMPR; AchR binding peptide) [Peptide L2-54]” was tested, and the OD was 0.609.

Substance “L2-55 (PACRSKRDWQK; AchR binding peptide) [Peptide L2-55]” has an OD of 0.524.

In the case of “L2-56 (FICKSRKFYGK; AchR binding peptide) [Peptide L2-56]”, the OD is reported as 0.713.

Substance “L2-57 (LEHKERKDDFR; AchR binding peptide) [Peptide L2-57]” has an OD of 0.795.

With “L2-58 (ANPKNRKDNLR; AchR binding peptide) [Peptide L2-58]” the OD was 0.701.

For “L2-59 (FGVKYRRVICR; AchR binding peptide) [Peptide L2-59]”, the OD was 0.69.

“L2-60 (HADKFRRFNMR; AchR binding peptide) [Peptide L2-60]” was tested, and the OD was 0.697.

Work on “L2-61 (PTIRVRKSDDR; AchR binding peptide) [Peptide L2-61]” yielded an OD of 0.688.

For “L2-62 (NLHKPKRDLPK; AchR binding peptide) [Peptide L2-62]”, the OD was 0.736.

Substance “L2-63 (IDGKWRKICTR; AchR binding peptide) [Peptide L2-63]” has an OD of 0.742.

Substance “L2-64 (SPFRAKRQDVR; AchR binding peptide) [Peptide L2-64]” has an OD of 0.683.

Substance “L2-65 (PLWKTRKIEPR; AchR binding peptide) [Peptide L2-65]” has an OD of 0.731.

For “L2-66 (PNYKWRKSRRR; AchR binding peptide) [Peptide L2-66]”, the OD was 0.798.

With “L2-67 (KTGRSKRHRWR; AchR binding peptide) [Peptide L2-67]” the OD was 0.696.

For “L2-68 (GPDKSRRNLHR; AchR binding peptide) [Peptide L2-68]”, the OD was 0.721.

In the case of “L2-69 (WCCKTKRAVMK; AchR binding peptide) [Peptide L2-69]”, the OD is reported as 0.676.

“L2-70 (QLLKMRKALSR; AchR binding peptide) [Peptide L2-70]” gave an OD of 0.67.

“L2-71 (PYLRSKRFPPR; AchR binding peptide) [Peptide L2-71]” showed an OD of 0.651.

Work on “L2-72 (APHKWRKQEQR; AchR binding peptide) [Peptide L2-72]” yielded an OD of 0.638.

“L2-73 (PPFKFRKPLGR; AchR binding peptide) [Peptide L2-73]” showed an OD of 0.662.

“L2-74 (CIMRVKRMWWK; AchR binding peptide) [Peptide L2-74]” was tested, and the OD was 0.651.

For “L2-75 (YILRDKKVPLK; AchR binding peptide) [Peptide L2-75]”, the OD was 0.539.

In the case of “L2-76 (PWVRIRKMASR; AchR binding peptide) [Peptide L2-76]”, the OD is reported as 0.725.

For “L2-77 (VADRQKKTAPK; AchR binding peptide) [Peptide L2-77]”, the OD was 0.733.

“L2-78 (HHNRMKKQYHR; AchR binding peptide) [Peptide L2-78]” gave an OD of 0.718.

In the case of “L2-79 (EGAKYRRDGWR; AchR binding peptide) [Peptide L2-79]”, the OD is reported as 0.689.

“L2-80 (FWDRVKRNPSK; AchR binding peptide) [Peptide L2-80]” gave an OD of 0.685.

In the case of “L2-81 (TMWRQRKMSCK; AchR binding peptide) [Peptide L2-81]”, the OD is reported as 0.705.

For “L2-82 (PDTRWKRVLFK; AchR binding peptide) [Peptide L2-82]”, the OD was 0.693.

For “L2-83 (HQQKCKKTTTK; AchR binding peptide) [Peptide L2-83]”, the OD was 0.65.

Substance “L2-84 (PWHKGKRDFDR; AchR binding peptide) [Peptide L2-84]” has an OD of 0.574.

“L2-85 (VFVKWRRQMMR; AchR binding peptide) [Peptide L2-85]” gave an OD of 0.768.

With “L2-86 (SQWKIRKRLIR; AchR binding peptide) [Peptide L2-86]” the OD was 0.701.

“L2-87 (EWHKVRRVYAK; AchR binding peptide) [Peptide L2-87]” gave an OD of 0.716.

Work on “L2-88 (NAMRTKRMSFK; AchR binding peptide) [Peptide L2-88]” yielded an OD of 0.744.

For “L2-89 (PPFKFRKPLGR; AchR binding peptide) [Peptide L2-89]”, the OD was 0.749.

With “L2-90 (TSVKKRKQRLR; AchR binding peptide) [Peptide L2-90]” the OD was 0.765.
